{"source": "paper PMC3509150", "about": "(2012)", "binders": {"B1": {"name": "CANTDcb1 nanobody with C-terminal 6xHis-tag, purified (VHH)", "VHH": "QVQLVESGGGLVQAGGSLRLSCAASGYFSSYAMGWFRQAPGKEREFVAAISWIESTTDYADSVKGRFTISRDNAKKTLHLQMNSLKPEDTAVYYCAACDIPFGQAFCALYDYWGQGTQVTVSS"}}, "target": "HIV-1 capsid protein (CA), full-length (HIV-1, UniProt P12493 133-363)", "data": [{"binder": "B1", "values": [{"measurement": "koff", "value": 0.00012, "unit": "s⁻¹"}]}]}
